From patent US6380373B1, “Steroid receptor coactivator compositions and methods of use” (Baylor College of Medicine, priority 1995, dated 2002)
Values belong to the molecule of their own block, whether it stands above or below them.

Legend:
[1] = molecular target: T1, hPR (Homo sapiens, UniProt P06401); assay: Transient transfection CAT reporter assay, hPRB with PRE2-TATA-CAT in HeLa cells; type: cell-based; conditions: HeLa cells, PRE2-TATA-CAT, 2×10^−8 M R5020, without SRC-1
T1 construct: expressed in transfected cells; host or cells: HeLa
T1 sequence (P06401 1-933): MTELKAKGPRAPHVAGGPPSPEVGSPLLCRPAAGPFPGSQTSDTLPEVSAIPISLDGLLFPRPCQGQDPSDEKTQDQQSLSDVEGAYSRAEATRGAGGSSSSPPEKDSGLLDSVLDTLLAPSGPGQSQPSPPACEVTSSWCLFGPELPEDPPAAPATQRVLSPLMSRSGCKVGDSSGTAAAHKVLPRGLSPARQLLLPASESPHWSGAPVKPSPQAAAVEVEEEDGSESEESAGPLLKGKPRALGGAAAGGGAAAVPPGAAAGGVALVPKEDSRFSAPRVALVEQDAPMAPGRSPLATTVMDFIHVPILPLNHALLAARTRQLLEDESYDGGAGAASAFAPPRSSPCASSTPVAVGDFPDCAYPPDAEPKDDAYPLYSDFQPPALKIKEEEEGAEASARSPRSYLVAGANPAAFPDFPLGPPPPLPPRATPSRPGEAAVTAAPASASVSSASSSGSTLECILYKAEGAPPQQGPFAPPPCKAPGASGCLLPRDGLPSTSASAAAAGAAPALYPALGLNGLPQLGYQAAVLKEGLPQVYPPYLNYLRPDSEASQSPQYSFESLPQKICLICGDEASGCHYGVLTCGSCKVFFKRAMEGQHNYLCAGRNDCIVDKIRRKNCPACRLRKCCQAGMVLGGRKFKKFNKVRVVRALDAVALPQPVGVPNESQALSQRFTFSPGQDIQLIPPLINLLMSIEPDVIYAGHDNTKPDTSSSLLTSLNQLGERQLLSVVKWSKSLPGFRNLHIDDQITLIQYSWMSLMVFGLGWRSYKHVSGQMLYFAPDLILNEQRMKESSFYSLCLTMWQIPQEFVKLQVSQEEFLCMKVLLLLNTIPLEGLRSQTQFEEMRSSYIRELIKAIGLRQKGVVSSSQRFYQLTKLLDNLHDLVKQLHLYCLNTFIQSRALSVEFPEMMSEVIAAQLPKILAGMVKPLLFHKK
Protocol: (§1) Lipofectin (GibcoBRL) was selected for transfection of Hela cells.
To further investigate the role of SRC-1 in receptor transactivation of target gene expression, transient transfection assays were carried out in mammalian cell lines. HeLa cells were cotransfected with mammalian expression vectors for full-length SRC-1 and hPRB together with a plasmid containing two copies of the progesterone-responsive DNA element (PRE) inserted in front of the TATA box of the E1b adenovirus, linked to the chloramphenicol acetyl transferase (CAT) reporter gene, PRE2-TATA-CAT.
Cells were harvested 42 h after transfection and the chloramphenicol acetyl transferase (CAT) activity determined using 8 μg of protein extract.

[2] = molecular target: T2, GST-ER (Homo sapiens, UniProt P03372); assay: In vitro interaction with baculovirus expressed GST-ER; type: binding
T2 construct: GST; made in house
T2 sequence (P03372 1-595): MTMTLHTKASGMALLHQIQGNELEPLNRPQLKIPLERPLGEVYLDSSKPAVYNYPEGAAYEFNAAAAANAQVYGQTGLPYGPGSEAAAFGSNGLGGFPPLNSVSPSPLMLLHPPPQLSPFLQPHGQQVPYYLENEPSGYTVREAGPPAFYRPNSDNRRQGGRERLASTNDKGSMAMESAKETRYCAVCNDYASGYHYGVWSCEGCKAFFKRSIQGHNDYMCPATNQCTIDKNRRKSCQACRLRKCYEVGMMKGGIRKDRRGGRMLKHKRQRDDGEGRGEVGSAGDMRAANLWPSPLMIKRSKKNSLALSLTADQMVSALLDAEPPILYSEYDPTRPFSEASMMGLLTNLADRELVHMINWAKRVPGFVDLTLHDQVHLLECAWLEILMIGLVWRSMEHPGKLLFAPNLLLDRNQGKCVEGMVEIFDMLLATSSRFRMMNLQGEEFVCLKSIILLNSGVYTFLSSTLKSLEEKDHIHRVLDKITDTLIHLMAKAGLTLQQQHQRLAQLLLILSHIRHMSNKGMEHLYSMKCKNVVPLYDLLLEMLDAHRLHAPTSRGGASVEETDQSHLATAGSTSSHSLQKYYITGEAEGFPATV
Excerpt: (§2) Thus, we investigated the effect of SRC-1 expression on the transcriptional activity of other intracellular receptors.

[3] = molecular target: T1, hPR; assay: Dominant-negative CAT assay PR/PRE2-tk-CAT with SRC-1(0.8); type: cell-based; conditions: Lmtk- cells
Protocol: as §1
(§3) To further elucidate the mechanism of SRC-1 action, the effect of the N-terminal deletion mutant of SRC-1, SRC-1(0.8), on receptor transactivation was examined. The amino acid sequence from 865-1061, which contains the region that binds to the receptor, was cloned in frame to a mammalian expression vector that provided an exogenous AUG codon.
(§4) Lmtk^− cells were transfected with 5 μg of steroid receptors cDNAs expression vectors and their reporters, PR/PRE2-tk-CAT and TR§/DR4-tk-CAT, along with 10 μg of SRC-1(0.8) or empty expression vector and then treated with hormones (2×10^−8 M). The reporter CAT activity was determined using 60 μg of protein extract.

[4] = molecular target: T3, GST-TR (Homo sapiens, UniProt P10828); assay: In vitro interaction with baculovirus expressed GST-TR; type: binding
T3 construct: GST; made in house
T3 sequence (P10828 1-461): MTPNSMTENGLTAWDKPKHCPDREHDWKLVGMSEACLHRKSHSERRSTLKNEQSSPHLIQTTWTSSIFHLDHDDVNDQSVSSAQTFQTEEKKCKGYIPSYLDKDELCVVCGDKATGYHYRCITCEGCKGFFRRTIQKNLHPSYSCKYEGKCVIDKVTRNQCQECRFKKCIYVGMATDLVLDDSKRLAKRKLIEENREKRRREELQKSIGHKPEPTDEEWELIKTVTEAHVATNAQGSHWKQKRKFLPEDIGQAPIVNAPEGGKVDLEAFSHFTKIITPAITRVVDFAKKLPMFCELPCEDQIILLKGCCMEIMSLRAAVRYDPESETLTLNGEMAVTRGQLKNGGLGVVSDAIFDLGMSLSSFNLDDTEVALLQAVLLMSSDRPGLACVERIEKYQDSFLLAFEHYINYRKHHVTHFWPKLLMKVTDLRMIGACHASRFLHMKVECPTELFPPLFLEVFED
Excerpt: as §2

[5] = molecular target: T4, TR (Homo sapiens, UniProt P10828); assay: Dominant-negative CAT assay TR/DR4-tk-CAT with SRC-1(0.8) in Lmtk- cells; type: cell-based; set-up: expressed in transfected cells; host or cells: Lmtk- (mouse fibroblast) cells; conditions: 10 μg SRC-1(0.8), hormone 2×10^−8 M
T4 sequence (P10828 1-461): T3 sequence (P10828 1-461)
Protocol: as §1, §3, §4

induction of hPR activity (CAT reporter) [1]: ~5 fold
Molecule: CCC(=O)[C@@]1(C)CC[C@H]2[C@@H]3CCC4=CC(=O)CCC4=C3CC[C@@]21C [R5020, reference compound]

interaction with GST-ER in vitro [2]: able to interact | effect on hormone induced transcriptional activity of hPR ([3]; 10 μg SRC-1(0.8), hormone 2×10^−8 M): efficiently reduced | effect on the hormone-free receptor ([3]; no hormone): No major effect | interaction with GST-TR in vitro [4]: able to interact | effect on ligand-induced transcriptional activity of TR [5]: inhibits
B1: SRC-1(0.8): N-terminal truncated form of SRC-1, amino acids 865-1061, containing the receptor-binding region; dominant-negative repressor (protein, UniProt Q15788 865-1061, looked up, fragment)
chain: LNRLPELELEAIDNQFGQPGTGDQIPWTNNTVTAINQSKSEDQCISSQLDELLCPPTTVEGRNDEKALLEQLVSFLSGKDETELAELDRALGIDKLVQGGGLDVLSERFPPQQATPPLIMEERPNLYSQPYSSPSPTANLPSPFQGMVRQKPSLGTMPVQVTPPRGAFSPGMGMQPRQTLNRPPAAPNQLRLQLQQR
